From US20240343802A1
pKd: −log10 of the molar value.

Target: CD3 on CD3-expressing T cells (Jurkat, HPB-ALL) (UniProt P07766)
Assay: FACS, HBP-ALL T cells
Design: Bmax: unit not given here

OKT3 (commercial anti-CD3 antibody)
Bmax: 13300 | pKd: 9.34
